Laboratory results: US20230242902A1, “A HIGHLY ERROR-PRONE […] R[…] FOR TARGETED CONTINUOUS EVOLUTION IN VIVO” (The Regents of the University of California, priority 2017, published 2023)
Positions count from the first letter of the chain named. Numbers in names are those of the source.

B1: Y313M: TP-DNAP1 variant (protein)
chain: MDYKDKALNDLRNVYADFDSLPLDFRQILIKDRATLLQKEDVEKKILERQEDAKKYAEYLKQSEIPERISLPNIKRHKGVSISFEETSEDMVLEPRPFIFDGLNIRCFRRETIFSLKNKILNMVKESSSFKNVSRQSVSFMYFKIFNKGKVIASTKSVNIYEDKIDERLEDLCNNFDDVLKKIIDVTYGYESLFVSETYSYVIFYAKSIYFPQPRCVNNWGNNIPNILTFDSFKLFTANKNNVSCIKQCSRFLWQKDFNTLEEMIEYKNGNICIVTPQLHINDVRDIKSFNDIRLYSESPIKTFSVIDNTITMLFYFKEHLGVIFNITKSRHDRRVTKFSPLSKFSDVKNITVCFDIESYFDPEKESNQVNIPFICCASIIYNKVIGNIVDFEGRDCVAQMIEYVVDICGELNISSVELIAHNGGGYDFHYILSSMYNPAAIKNILIRNNSFISFNFAHDGVKFSVKDSYSFLLCSLANASKAFLNEETFKKTDFPHHDLKTADDLYKVYKEWSSVNTEINHVVEKEKLLITSEHIVNFTKNDKSKTLIEWSKDYCRNDVLVLSKVWLEFKNAVEDIFNCELVDQTMTLAGLSYKLFQANMPFDVELRHPNKEDYFNMREALIGGRCISVNGIYKDVLCLDVKSLYPASMAFYDQPYGSFKRVSSRPKDELGIYYVRVTPNRNNKSNFFPIRSHNKITYNNFEESTYIAWYTNVDIDIGLSEGHNIEYIPFDSYGNIGYSWSKKGKIFEKYIKDVLYKLKIKYEKQNNKVKRNVIKIIMNSLWGKFAQKWVNFEYFIKSEDDIDFESEEAYKIWDTDFMLIKKIKESTYSSKPIQNGVFTLSWARYHMKSIWDAGAKEGAECIYSDTDSIFVHKEHFKKNAKFMLNGLKVPIIGSEVGQLELECEFDKLLCAGKKQYMGFYTYFQDGKPCIKEKKRFKGIPSNYIIPELYAHLLSGADKEAKIQFLKFRREWGSVKGYIENKTVKAT
B2: G410E: TP-DNAP1 variant (protein)
chain: B1 chain with M313Y, G410E
B3: I372C: TP-DNAP1 variant (protein)
chain: B1 chain with M313Y, I372C
B4: V385W: TP-DNAP1 variant (protein)
chain: B1 chain with M313Y, V385W
B5: Y382V: TP-DNAP1 variant (protein)
chain: B1 chain with M313Y, Y382V
B6: G387H: TP-DNAP1 variant (protein)
chain: B1 chain with M313Y, G387H
B7: D333V: TP-DNAP1 variant (protein)
chain: B1 chain with M313Y, D333V
B8: I287M: TP-DNAP1 variant (protein, listed as Kluyveromyces lactis)
chain: B1 chain with I287M, M313Y
B9: D333T: TP-DNAP1 variant (protein)
chain: B1 chain with M313Y, D333T
B10: G410K: TP-DNAP1 variant (protein)
chain: B1 chain with M313Y, G410K
B11: G410Q: TP-DNAP1 variant (protein)
chain: B1 chain with M313Y, G410Q
B12: D407M: TP-DNAP1 variant (protein)
chain: B1 chain with M313Y, D407M
B13: D407F: TP-DNAP1 variant (protein)
chain: B1 chain with M313Y, D407F
B14: Y313F: TP-DNAP1 variant (protein)
chain: B1 chain with M313F
B15: D407A: TP-DNAP1 variant (protein)
chain: B1 chain with M313Y, D407A
B16: G410M: TP-DNAP1 variant (protein)
chain: B1 chain with M313Y, G410M
B17: D333M: TP-DNAP1 variant (protein)
chain: B1 chain with M313Y, D333M
B18: G410R: TP-DNAP1 variant (protein)
chain: B1 chain with M313Y, G410R
B19: G410H: TP-DNAP1 variant (protein, listed as Kluyveromyces lactis)
chain: B1 chain with M313Y, G410H
B20: K365N: TP-DNAP1 variant (protein)
chain: B1 chain with M313Y, K365N
B21: Y382A: TP-DNAP1 variant (protein)
chain: B1 chain with M313Y, Y382A
B22: D407H: TP-DNAP1 variant (protein)
chain: B1 chain with M313Y, D407H
B23: S330R: TP-DNAP1 variant (protein)
chain: B1 chain with M313Y, S330R
B24: G410L: TP-DNAP1 variant (protein)
chain: B1 chain with M313Y, G410L
B25: D333N: TP-DNAP1 variant (protein)
chain: B1 chain with M313Y, D333N
B26: Y313W: TP-DNAP1 variant (protein)
chain: B1 chain with M313W
B27: D407C: TP-DNAP1 variant (protein)
chain: B1 chain with M313Y, D407C
B28: V406Q: TP-DNAP1 variant (protein)
chain: B1 chain with M313Y, V406Q
B29: Y313V: TP-DNAP1 variant (protein)
chain: B1 chain with M313V
B30: G410I: TP-DNAP1 variant (protein)
chain: B1 chain with M313Y, G410I
B31: D407T: TP-DNAP1 variant (protein)
chain: B1 chain with M313Y, D407T
B32: D333N, K344R: TP-DNAP1 variant (protein)
chain: B1 chain with M313Y, D333N, K344R
B33: Y316R: TP-DNAP1 variant (protein)
chain: B1 chain with M313Y, Y316R
B34: V406C: TP-DNAP1 variant (protein)
chain: B1 chain with M313Y, V406C
B35: D407V, S415T: TP-DNAP1 variant (protein)
chain: B1 chain with M313Y, D407V, S415T
B36: D407G: TP-DNAP1 variant (protein)
chain: B1 chain with M313Y, D407G
B37: D333A: TP-DNAP1 variant (protein)
chain: B1 chain with M313Y, D333A
B38: R395P: TP-DNAP1 variant (protein)
chain: B1 chain with M313Y, R395P
B39: I327Q: TP-DNAP1 variant (protein)
chain: B1 chain with M313Y, I327Q

Tested on: p1
Test: p1 copy number by p1-encoded mKate2 fluorescence
Assay type: cell-based, S. cerevisiae
Conditions: OR-Y24, measured in triplicate
Method in brief: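 Yeast OR-Y24 strains carrying TP-DNAP1 variants were grown to saturation from a 1:10,000 dilution, and p1-encoded mKate2 fluorescence was measured by flow cytometry (ex/em 561/620 nm). Values were converted to copy number via a linear calibration against qPCR of p1-encoded LEU2 versus genomic LEU3, or by plate-reader OD600-normalized fluorescence relative to w.t. TP-DNAP1.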

Molecule	Mean fold-increase over w.t. (p1 copy number) [fold]
B1	1.94
B2	2.37
B3	1.73
B4	1.41
B5	1.62
B6	1.57
B7	2.18
B8	2.39
B9	2.41
B10	2.53
B11	2.2
B12	2.71
B13	2.28
B14	2.11
B15	2.25
B16	2.55
B17	2.6
B18	2.87
B19	2.19
B20	1.89

Molecule	Mean fold-increase over w.t. (p1 copy number) [fold]
B21	1.6
B22	2.57
B23	2.21
B24	2.57
B25	2.07
B26	2.15
B27	2.26
B28	2.16
B29	2.48
B30	2.57
B31	3.95
B32	2.07
B33	2.46
B34	2.34
B35	1.95
B36	2.53
B37	1.57
B38	1.91
B39	2.15
